According to paper PMC2776655 (Circulation research, 2009):
Substitutions are numbered along the chain they refer to. Numbers in names are those of the source.

B1: hVEGF-Csf C137A, from transfected 293T cell medium (ligand, human, UniProt P49767 112-227, looked up)
chain: AHYNTEILKSIDNEWRKTQCMPREVAIDVGKEFGVATNTFFKPPCVSVYRCGGCCNSEGLQCMNTSTSYLSKTLFEITVPLSQGPKPVTISFANHTSCRCMSKLDVYRQVHSIIRR
B2: purified hVEGF-Csf C137A (ligand, human, UniProt P49767 112-227, looked up)
chain: B1 chain
B3: purified human VEGF-Csf (ligand, UniProt P49767 112-227, looked up)
chain: B1 chain with A26C

Columns and labels:
[1] = target: the molecule itself; experiment: SDS-PAGE in non-reducing conditions
[2] = target: T1, VEGFR-3 (protein used in isothermal titration calorimetry) (UniProt P35916 25-775); experiment: ITC
T1 sequence (looked up): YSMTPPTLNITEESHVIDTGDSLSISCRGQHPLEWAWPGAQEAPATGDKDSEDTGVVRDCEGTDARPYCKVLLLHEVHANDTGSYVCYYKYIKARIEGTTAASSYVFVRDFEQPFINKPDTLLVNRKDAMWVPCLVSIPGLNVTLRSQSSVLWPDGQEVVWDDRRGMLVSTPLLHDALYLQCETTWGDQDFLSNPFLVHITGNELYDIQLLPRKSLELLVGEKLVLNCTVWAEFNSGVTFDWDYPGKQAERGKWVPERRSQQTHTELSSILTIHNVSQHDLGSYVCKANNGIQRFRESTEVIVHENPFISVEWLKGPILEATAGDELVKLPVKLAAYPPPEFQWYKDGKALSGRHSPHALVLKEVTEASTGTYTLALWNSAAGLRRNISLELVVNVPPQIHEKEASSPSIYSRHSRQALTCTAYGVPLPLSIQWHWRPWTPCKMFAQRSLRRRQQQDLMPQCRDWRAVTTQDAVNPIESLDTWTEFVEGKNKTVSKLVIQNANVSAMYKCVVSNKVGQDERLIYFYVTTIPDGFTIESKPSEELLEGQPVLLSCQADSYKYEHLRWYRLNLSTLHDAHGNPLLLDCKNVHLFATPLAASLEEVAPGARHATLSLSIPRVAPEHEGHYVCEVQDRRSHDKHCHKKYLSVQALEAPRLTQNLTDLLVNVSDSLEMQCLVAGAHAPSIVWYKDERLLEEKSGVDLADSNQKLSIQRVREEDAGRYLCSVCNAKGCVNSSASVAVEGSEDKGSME

VEGFR-3-Ig = target: T2, VEGFR-3-Ig (UniProt P35916 25-775); experiment: ELISA
T2 sequence (looked up): T1 sequence (looked up)

VEGFR-2-Ig = VEGFR-2-Ig (UniProt P35968 20-764); experiment: ELISA
[3] = target: the molecule itself; experiment: SDS-PAGE after treatment with DTT

Sequence of VEGFR-2-Ig (P35968 20-764): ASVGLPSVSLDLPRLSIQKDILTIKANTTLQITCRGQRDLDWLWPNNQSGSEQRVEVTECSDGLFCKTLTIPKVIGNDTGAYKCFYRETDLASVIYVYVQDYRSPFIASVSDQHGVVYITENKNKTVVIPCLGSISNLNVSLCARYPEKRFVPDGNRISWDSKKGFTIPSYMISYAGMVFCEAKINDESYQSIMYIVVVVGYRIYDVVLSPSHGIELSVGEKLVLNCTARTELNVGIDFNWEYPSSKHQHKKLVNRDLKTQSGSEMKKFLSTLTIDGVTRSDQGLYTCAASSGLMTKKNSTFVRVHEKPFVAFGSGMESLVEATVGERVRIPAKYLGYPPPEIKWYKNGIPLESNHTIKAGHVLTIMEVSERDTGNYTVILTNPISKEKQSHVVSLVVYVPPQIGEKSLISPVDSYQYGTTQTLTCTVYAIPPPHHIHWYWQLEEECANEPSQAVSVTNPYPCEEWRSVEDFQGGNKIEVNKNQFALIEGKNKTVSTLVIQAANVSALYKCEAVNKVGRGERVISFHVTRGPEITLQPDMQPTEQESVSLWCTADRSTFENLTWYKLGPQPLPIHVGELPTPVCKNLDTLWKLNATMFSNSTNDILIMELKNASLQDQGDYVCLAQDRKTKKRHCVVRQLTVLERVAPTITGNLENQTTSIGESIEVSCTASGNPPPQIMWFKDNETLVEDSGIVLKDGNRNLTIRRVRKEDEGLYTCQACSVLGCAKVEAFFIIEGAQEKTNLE

Row | Binder | stoichiometry N [1] | Kd [2] | EC50 (VEGFR-3-Ig) | EC50 (VEGFR-2-Ig) | stoichiometry N [3]
1 | B1 | 2 |  |  |  | 
2 | B2 |  | 280 ± 30 nM | 1.3 ± 0.3 nM | 2.7 ± 0.6 nM | 2
3 | B3 |  | 310 ± 50 nM | 2.2 ± 0.6 nM | 2.6 ± 0.3 nM | 
